Data: the nanobody polyreactivity screen of Harvey et al. (2022)

Experiment: yeast display, Sf9 membrane polyspecificity reagent, FACS + sequencing; frameworks hold sequencing errors
Procedure, shortened: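 Synthetic nanobody libraries on Saccharomyces cerevisiae BJ5465 were galactose-induced for 36–48 hours, stained 1 hour at 4 °C with 10% biotinylated, detergent-solubilized Sf9 membrane reagent and enriched on streptavidin microbeads. FACS then separated cells into low and high (top ~1%) gates by anti-HA (expression) and streptavidin (reagent binding) fluorescence. Genes were colony-PCR amplified, MiSeq 2 × 250 sequenced and CDR-length filtered. A clone's polyreactivity label is that of its gate of origin.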

Sequence	polyreactivity (PSR sort gate)
QVQLVESGGGLVHAGGSLRLSCAASGSIFKPYVMGWYRQAPGKERELVAAITTSGVRTYYADSVKGRFTISRDNAKNTVYLQMNSLKPEDTAVYYCATRRWSWPQFRTGDYWGQGTQVTVSS	high polyreactivity
QVQLVESGGGLVQAVGSLRLSCAASGRTFYSYAMGWYRQAPGKERELVAAISRTGGSTYYADSVKGRFTISLDNAKNTVYLQMNSLKPEDTAVYYCAAVYRRNEFGYWGQGTQVTVSS	high polyreactivity
QVQLVESGGGLVQAGGSLRLICAASGSILYYYVMGWYRQAPGKERQLVAAITSGGSTYYADSVKGRFTISRDNAKNNVYLQMNSLKPEDTAVYYCAVRPRRQYSPSRWGTGCYWGQGTQVTVSS	high polyreactivity
QVQLVESGGGLVQAGGSLRLSCAASGLILYTYAMGWSRQAPGQVRELVAAINSGGRTYYADAVKGRFTISRDNAKNTVYLQMNSLKPEDTAVYYCAADYGSRVRGFNYWGQGTQVTVSS	low polyreactivity
QVQLVESGGGLVQAGGSLRLSCAASGNTFGGYAMGWYRQAPGKERELVATISYADSVKGRFTISRDNAKNTVYLQMNSLKPEDTAVYYCNKQFGYPWEYYSYSYDYWGQGTQVTVSS	low polyreactivity
QVQLVESGGGLVQAGGSLRLSCAASGRIFGLYAMGWYRQAPGKERELVAAITRGGRTNYADSVKGRFTISRDNAKNTVYLQMNSLKPEDTAVYYCAADYRYTRGRRDYWGQGTQVTVSS	high polyreactivity
QVQHVESGRGLVQAGGSLRLSCPASGSTFSYYAMGWYRQAPGKERELVASISSTTGSTYYADSVKGRFTISRDNAKNTVYVKMNSVKPEDTAVYYCAADIPPGGGDYWGQGSQVTVSS	low polyreactivity
QVQLVETGGGLVQAGGSLRLSCAASGIIFPFYAMGWYRQAPGKERELVAAITSDGNTNYADSVKGRFTISRDNAKNTVYLQMNSLKPEDTAVYYCNAETQYGVLSWHSTRHDYWGQGTQVTVSS	low polyreactivity
QVQLVESGGGLVQEGGSLRLSCAASGSIFVLYAMGWYRQAPGKERQLVAAINYEGASTYYADSVKGRFTISRDNAKITVYLQMNSLKPEDKAVFYCAARWQFNIDVQLYLFEYWGQGTQVTVSS	low polyreactivity
QVQLVESGGGLVQAGGSLRLSCAASGSTLYVNAMGCYIQAPGKERELVAAISSGGGRTYYADSVKGRFTISRDNAKNTVYLQMNSLKPEETAVYYCARKPYYPYDYWGQGTLVTVSS	low polyreactivity
QDQLVESGGGLVQAGGSLRLSCAPSGRTFRYNAMGWYIQAPVKERELVAAINWNCGSTYYADSVKGRFTISRDNAKNTVYLQMNSLKPEDTAVYYCNADFYHRYDWGQGTQVTVSS	high polyreactivity
QVQLVESGGGLVQAGGSLRLSCAASGSTFPHYAMGWYRQAPGKERELVAAISWSGSSTYYADSVKGRFTISRDNAKNTVYLQMNSLKPEDTAVYYCNILPRRAPQFTYDYWGQGTQVTVSS	high polyreactivity
KVQLVESGGGLVQAGGSLRLSCAASGRIFLPYAMGWYRQAPGKEREFVAAITWGAGTTYYADSVKGRFTISRDNAKNTVYLQMNSLKPEDTAVYYCAAEYRVLSWTYGYWGQGTQVTVSS	high polyreactivity
QVQLVESGRGLVQAGGSLRLSCAASGRIFPFYAMGWYRQAPGKERELVAAISSSGGSTYYADSVKGRFTISRDNAKNTVYLQMNSLKPEDTAVYYCAATRNSDGMGYWGQGTLVTVSS	low polyreactivity
QVQLVESGGGLVQAGGSLRLNCAASGRIFDVNAMGWYRQAPGKERELVAAITYSDGSTYYADSLKGRFTISRDTAKNTVYLQMNSLKPEDTAVYYCAATHEPVTPQPYGYWGQGTQVTVSS	low polyreactivity
QVQRVESGGGLVQAGASLRLSCAASGGIFYRNAMLWYRQAPGKERELVAAISRRAGSTYYADSVKGRFTISRDNAKNTVYLQMNSLKPEDTAVYYCARRVVNVGDADREYWGQGTQVTVSS	high polyreactivity
QVQLVESGGGLVQAGGSLRLSCAASGFTFIYYTMGWYRQAPGKEREFVAAISWGGSTYYADSVKGRFTISRDNAKITVYLLMNSLKPEDTAVYYCNAVSAVAYTRFVYWGQGTQVTVSS	high polyreactivity
QVQLVESGGGLVQAGGSLRLSCAASGIIFRRYAMGWYRQAPGKERELVAAISSGGRTYYADSVKGRFTISRDNAKNTVYLQMNSLKPEDTAVYYCNARAFARYWWYEYWGQGTQVTVSS	high polyreactivity
QVQLVESGGCLVQAGGRLRLSCAASGFIFHGYAMGWYRPAPGKERELVAAISSRGGTTYYADSVQGRFTISRDKAKTTVYLQMNSLKPEDSAVDDCAADKIRYITSPVPFYYWGQGTQVTVSS	high polyreactivity
QVQLVESGGGLVQAGGSLRLSGAASGRIFGTYDMGWYRQAPGKERELVAAINRSAGSTYYADSVKGRITISRDNAKNTVYLQMNSLKPEDTAVYYCAKQPLLFQYLEYDYWGQGTQVTVSS	low polyreactivity
QVQLKESGAGLVQAGGSLRLCCAASGNIIPDAGMGWYRQAPGKEREFVAGISRGANTYYADSVKGRFTISRDNAKNSVYLQMNSLKPEDTAVYYCNAGSSYLCRFPLDYWGQGTQVTVSS	high polyreactivity
QVQLVESGGGLVQAGGSLRLSCAASGRIGRYAMGWYRQAPGKERELVAVITSGDSTYYADSVKGRFTISRDNAKNTVYLQMNSLTPEDTAVYYCAADSYRRWGNLFTGNEYDSWGQGTQVTVSS	low polyreactivity

Sequence	polyreactivity (PSR sort gate)
QVQLEESGGGLMQAGGNLRLSCAASGYISTHYDMDWYRQAPGRERELVARIDDGAITNYADSVKGRFTISRDNATNTVYLQMNSLKPEDTAVYYCAVYSGDDYYHDYWGQGTQVTVSS	low polyreactivity
QVQLVESGGGLVQSGGSLRLSCAASGRTYGYNAMGWYRQAPGKERELVAAISRSGDSTYYADSVKGRFTISRDNAKNTVYLQMNSLKPEDTAVYYCATRYVTTGYDYWGQGTQVTVSS	low polyreactivity
QVQLVESGGGLLQAGGSLRLSCAASVRIFYGYAMGWYRPAPGKERELVAAIDSVGDTYYADSVKGRFTISRDNAKNTVYLQMNSLNPEDTAVYYCAADRTGGIVLSPTDEMDYWGQGTQVTVSS	low polyreactivity
QVQLVESGGGLVQAGVSLRLSCAASGRTFIGNAMGWYRQAPGKEREFVAAISRRGGSTYYADSVKGRFTISRDNAKNTVYLQMNSLKPEDTAVYYCAAGQTTTGILTYYYWGQGTQVTVSS	high polyreactivity
QVQLVESGGGLVQAGGSLRLCCASSGSTFTYNTMGWYRQAPGKERELVAAISFSSGRTYYADSVKVRFTISRYNAINTVYLHINSLKPEDTAVYYCNARTWETLRGYDYWGQGTQVTVSS	high polyreactivity
QVQLVESGGGLVQAGGSLRLSCAASGRIFKRNTMGWYRQAPGKERELVAAITRSGGSTHYADSVKGRFTISRDNAKNTVYLQMNSLKPEDTAVYYCAVRAAAIDRLAQFDYWGQGTQVTVSS	low polyreactivity
QVQLVESGGGLVQAGGSLRLSCAASGFIFQRYAMGWYRQAPGKERELVAAISSGGGTNYADSVKGRFTISRDNAKNTVYLQMNSLKPEDTAVYYCARPYYVYSQSSDYWGQGTQVTVSS	low polyreactivity
QVQLVESGGGLVQAGGSLRLSCAASGRIFPGNAMGGYRQAPGKERELVATISRIGGSTYADSVKGRFTISRDNAKNTVYLQMNSLKPEDTAVYYCAKTWVSRDVEYDYWGQGTQVTVSS	low polyreactivity
QVQLVESGGGLVQAGGSLRLSCAASGSTFNRYAMGWYRQAPGTERELVAAISGRGGSTYYADSVKGRFTISRDNAKNTVYLQMNSLKPEDTAVYYCAKLSYLHGTAREFRFDYWGQGTQVTVSS	high polyreactivity
QVQLVESGGGLVQAGGSLRLSCAASGIIFSTYAMGWYRQAPGKERELVAAITSTGSTNYADSVKGRFTISRDNAKNTVYLQMNSLKPEDTAVYYCAARYAGPSPTDTGHDYWGQGTQVTVSS	low polyreactivity
QVQLVESGGGLVQAGGSLRLSCAASGSTFYLNAMGWYRQAPGKEREFVAAIRGGGTSTRYADSVKGRFTISRDNAKNTVYLQMNSLKPEDTAVYFCAAPRVVYRGDYWGQGTQVTVSS	high polyreactivity
QVQLVESGGGLVQAGGSLRLTCAASGGTIFPNAMGWYRQAPGKEMELVATITSSDTTNYADSVKGRFTISRDNAMNTVYLQMNSLKTEDTAVYYCDASFKLRYWDYYYWGQGTQVTVSS	low polyreactivity
QVQLVESGGGLVQAGGSLRLSCAASGRYFGYNAMGWYRQAPGKERELVAAITGSGGSTYYADSVKGRFTISLDNAKHTVYLQIISLKPEDTAVYYCAADRFYHSAEYDYWGQGTQVTVSS	low polyreactivity
QVQLVESGGGLVQAGGRLRLSCAASGRIFDRYAMGWYRQAPGKERELVAGISFSGGRTYYADSVKGRFTISRDNAKNTVYLQMNSLKPEDTAVYYCNTVTSGFLSYDYWGQGTQVTVSS	high polyreactivity
QGQLVESGGGLVQAGGSLRLSSAASGSIFFQNVMGWYRQAPGKERELVAAFSSSGDSTYYADSVKGRFTISRDNAKNTVYLQMISLKPEDTAVYYCAAEPEYVSGPYDYWGQGTQVTVSS	low polyreactivity
QVQLVESGGGLDQAGGSLRLTCADSGSIFIRNAMGWYRHAPGKESELVAAISGSGSSTYYADSVKGRFTISRDNAKNTVYLQMNSLKPEDTAVYYCNTDRTHSYQYGGYDYWGQGTQVTVSS	low polyreactivity
QVQLVESGGGLVQAGGSLRLSCAASGRIFSFNARGWYRPAPGKETELVAGITYGGNTYYADSVKGRFTISRDNAKNTVYLQMNSLKPEDTAVYYCAADGVYDQNLYGFWGQGTQVTVSS	low polyreactivity
QVQLVESGGGLVQAGGSLRLSCAASGRTFHWYTMGWYRLAPGKERELVAAISWSGTTTYYADSVKGRFTISRDNAKNTVYVQMNSLKPEDTAVYYCAFPTYNHNPVSAMTYYYWGQGTQVTVSS	low polyreactivity
QVQLVESGGGLVQAGGSLRLSCAASGSIFAGNAMGWYRQAPGRERELVAGITFGDDSTYYADSVKGRFTISRDNAKNTVYLQMNSLKPEDTAVYYCATDMHPYNYYFYHYWVDAAYDYWGQGTQVTVSS	low polyreactivity
QVQLVESGGGLVQAGGSLRLSCAASGSTFYLYAMGWYRQAPGKERELVAAISRGGTTYYADSVKGRFTISRDNAKNTVYLQMNSLKPEETAVYYCNARYTSRRSRRPYYYWGQGTQVTVSS	high polyreactivity
QVQLVESGGGLVQAGGSLRLSCPASGLIFRRNVMGRYRQAPGKERELVAAISRGGSTYNADSVKGRFTISRDNAKNTVFLQMNSLNPEDTAVYYCAAAYTRYVVRGDFWGQGTQVTVSS	high polyreactivity
